From the RNAGym collection of RNA variant scans (doi:10.1073/pnas.2313332121)

B1: TPR t1 (parent)
chain: GACCAAUCUGCCCUCAGAGCUCGAGAACAUCUUCGGAUGCAGAGGAGGCAGGCUUCGGUGGCGCGAUAGCGCCAACGUCCUCAACCUCCAAUGCAUCCCACCACAUGAUGAUGCCUGAAGAGCCUUGGUUUUUUG

Variants of: B1
Experiment: polymerase ribozyme fitness, log enrichment relative to wild type (log ratio); higher = more active; in vitro selection for triplet polymerase activity
Outline: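 Frozen incubation at −7 °C formed the core of a single, triplicate in vitro selection round applied to PCR-built, transcribed mutant libraries of each subunit of a heterodimeric triplet polymerase ribozyme. Extended constructs were gel-excised, captured with streptavidin beads and amplified by RT-PCR, and input and output libraries were Illumina-sequenced with a filter of ≥10 input reads and ≥1 read per output. Fitness is the logarithm of genotype enrichment relative to wild-type enrichment, with inverse-variance-weighted replicate averaging, and the logarithm is base 2.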

| Variant | polymerase ribozyme fitness (log ratio) |
| --- | --- |
| GACAAAUCUGCCCUUAGAGCUCGAGAACAUCUUCGGAUGCAGAGGAGGCAGGCUUCGGUGACGCGAUAGCGCCAACGUCCUCAACCACCAAUGCAUCCCACCACAUGAUGAUGCCUGAAGAGCCUUGGUUUUUUG [C4A C15U G61A U87A] | -2.75 |
| GACAAAUCUGCCCUCAGAGCUCGAGAACAUCUUCGGAUGCAGAGGAGGCAGGCUUAGGUGGCGCGAUAGAGUCAACGUCCUCAACCUCCAAUGCAUCCCACCACAUGAUGAUGCCUGAAGAGCCGUGGUUUUUUG [C4A C56A C70A C72U U125G] | -4.17 |
| GACAAAUCUGCCUUCAGAGCUCGAGAACAUCUUCGGAUGCAGAGGAGGCAGGCUUCGGUGGCGCGAUAGCGCCAACGUCCUCAACCUCCAAUGCAUCCCACCACAUGAUGAUGCCUGAAGAGCCUUGGUUUUUUG [C4A C13U] | -1.41 |
| GACAAAUCUGCCCUCAGAGCUCGAGAACAUCUUCGGAUGCAGAGGAGGCAGGCUUCGGUGGCGCGAUAGCGCCAACGUCCUCAACCUCCAAUGCAUCUCACCACAUGAUGAUGCCUGAAGAGCCUUGGUUUUUUG [C4A C98U] | -2.2 |
| GACAAAUCUGCCCUCAGAGCUCGAGAACAUCUUCGGAUGCAGAGGAGGCAGGCUUCGGUGGCGCGAUAGUGCCAACGUCCUCAACCUCCAAUGCAUCCCACCACAUGAUGAUGCCUGAAGAGCCUUGGUUUUUUG [C4A C70U] | -1.71 |
| GACAAAUCUGCCCUCAGAGCUCGAGAACAUCUUCGGAUGCAGAGGAGGCAGGCUUCGGUGGCGCGAUAGGGCCAACGUCCUCAACCUCCAAUGCAUCCCACCACAUGAUGAUGCCUGAAGAGCCUUGGUUUUUUG [C4A C70G] | -3.6 |
| GACAAAUCUGCCCUCAGAGCUCGAGAACAUCUUCGGUUGCAGAGGAGGCAGGCUUCGGUGGCGCGAUAGCGUCAACGACCUCAACCUCCAAUGCAUCCCACCACAUGAUGAUGCCUGAAGAGCCUUGGUUUUUUG [C4A A37U C72U U78A] | -1.52 |
| GACAAAUAUGCCUUCAGAGCUCGAGAACAUCUUCGGAUGCAGAGGAGGCAGGCUUCGGUGGCUCGAUAGCGCCAACGUCCUCACCCUCCAAUGCAUCCCACCACAUGAUGAUGCCUGAAGAGCCUUGGUUUUUUG [C4A C8A C13U G63U A84C] | -2.38 |
| GACAAAUCUGCCCUCUGAGCUCGAGAACAUCUUCGGAUGCAGAGGAGGCAGGCUUCGGUGGCGCGAUAGCGUCAACGUCCUCAACCUCCAAUGCCUCCCACCACAUGAUGAUGCCUGAAGAGCCUUGGUUUUUUG [C4A A16U C72U A95C] | -3.63 |
| GACAAAUCUGCCCUCAGAGCUCGAGAACAUCUUCGGAUGCAGAGGAGGCAGGCUUCGGUGGCGCGAUAGCGCCAACGUCCUCAACCUCCAAUGCCUCCCACCACAUGAUGAUGCCUGAAGAGGCUUGGUUUUUUG [C4A A95C C123G] | -1.42 |
| GACAAAUCUGCCCUCAGAGCUCGAGAACAUCUUCGGAUGCCGAGGAGGCAGGCUUCGGUGGCGUGAUAGCGCCAACGUCCUCAACCUCCAAUGCAUCCCACCACAUGAUGAUGCCUGAAGAGCCUUGGUUUUUUG [C4A A41C C64U] | -1.54 |
| GACAAAUCUGCCCUCAGAGCUCGGGAACAUCUUCGGAUGCAGAGGAGUCAGGCUUCGGUAGCGCGAUAGCGCCAACGUCCUCAACCUCCAAUGCAUCCCACCACAUGAUGAUGCCUGAAGAGCCUUGGUUUUUUG [C4A A24G G48U G60A] | -4.54 |
| GACAAAUCUGCCGUCAGAGCUCGAGAACAUCUUCGGAUGCAGAGGAGGGAGGCUUCGGUGGCGCGAUAGCGCCAACGUCCUCAACCUGCAAUGCAUCCCACCACAUGAUGAUGCCUGAAGAGCCUUGGUUUUUUG [C4A C13G C49G C88G] | -4.57 |
| GACAAAUCUGCCCUCAGAGCUCGAGAACAUCUUCGGAUGCAGAGGAGGCAGGCUUCGGUGGCGCGAUAGCGCGAACGUCCUCAACCUCCAAUGCAUCCCACCACAUGAUGAUGCCUGAAGAGCCUUGGUUUUUUG [C4A C73G] | -2.98 |
| GAUCAAUCUGCCCUCAGAGCUCGAGAACAUCUUCGGAUGCAGAGGAGGCAGGCUUCGGUGGCGCGAUAGCGCCAACGUCCUCAACCUCCAAUGCAUCCCACCACAUGAUGAAGCCUGAAGAGCCUUGGUUUUUUG [C3U U112A] | 0.197 |
| GACAACUCUGCCCUCAGAGCUCGAGAACAUCUUCGGAUGCAGAGGCGGAAGGCUUCGGUGGCGCGAUAGAGGCAACGUCCUCACCCUCCAAUGCAUCCCACCACAUGAUGAUGCCUGAUGAGACUGGGUUUUUUG [C4A A6C A46C C49A C70A C72G A84C A119U C123A U126G] | -6.91 |
| GAUCAAUCUGCCCUCAGAGCUCGAGAACAUCUUCGGAUGCAGAGGAGGCAGGCAUCGGUGGCGCGAUAGCGCCAACGUCCUCAACCUCCAUUGCAUCCCACCACAUGAUGAUGCCUGAAGAGCCUUGGUUUUUUG [C3U U54A A91U] | -2.48 |
| GACAAAUCUGCCCUGAGAGCUCGAGAACAUCUUCGGAUGCAGAGGAGGCAGGCUUCGGUGGCGCGAUAGCGCCAACGUCCUCAACCUCCAAUGCAUCCCACCACAUGAUGAUGCCUGAAGAGCCUUGGUUUUUUG [C4A C15G] | -4.24 |
| GACAAAUCUGCCCUCAGAGCUCGAGAACAUCUUCGGAUGCUGAGGAGGCAGGCUUCGCUGGCGCGAUAGCGCCAACGUCCUCAACCUCCAAUGCAUCCCACCACAUGAUGAUGCCUAAAGAGCCUUGGUUUUUUG [C4A A41U G58C G117A] | -7.2 |
| GACAAAUCUGCCCUCAGAGCUCGAGAACGUGUUCGGAUGCAGAGGAGGCAGGCUUCGGUGGCGCGAUAGCGCCAACGUCCUCAACCUCCAAUGCAUCCCACCACGUGUUGCUGCGUGAAGAGACUUGGUUUUUUG [C4A A29G C31G A105G A108U A111C C115G C123A] | -6.34 |
| GACAAAUCUGCCCUCGGAGCUCGAGAACAUCUUCGGAUGCAGAGGAGGCAGGCGUCGGUGGCGCGAUAGCGCCAACGUCCUCAACCUCCAAUGCAUCCCAACACAUGAUGAAGCCUGAGGAGCCUUGGUUUUUUG [C4A A16G U54G C101A U112A A119G] | -0.726 |
